Data on 36 sequences can be found in the supplement of paper PMC10567573.

± gives the standard deviation.

The series can be described thus: protein stability index of a GFP-peptide fusion (GPS, HEK-293T) (PSI 1-6); higher = more stable. The settings on record: c terminus: a fixed tail appended.
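Further: 24-mer peptide tiles fused after GFP, lentivirally expressed, FACS-sorted into six equal bins by GFP/DsRed ratio, decoded by Illumina sequencing, PSI is the read-weighted mean bin number.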

As for DSPENGADSFESSDSLLQSWNSQS [ETS2], the protein stability index runs as follows: (treatment: DMSO) 5.11 ± 0.16; (treatment: MLN4924 1 uM, 8 h) 5.14 ± 0.15.
For RRVKLQLWDTSGQGRFCTIFRSYS [RAB40B] the same measures were 2.21 ± 0.57 and 2.08 ± 0.32.
For SYLDKVRALEEANTELEVKIRDWY [KRT17] the same measures were 2.97 ± 0.23 and 3.07 ± 0.32.
Consider EGRFWKSKNEDRGEEEAESSISST [ZMYND11], for which the protein stability index (treatment: DMSO) came out at 5.65 ± 0.2 and the protein stability index (treatment: MLN4924 1 uM, 8 h) was found to be 5.71 ± 0.13.
For LEQDLQQVMVSGPNLNETSIVSGG [ARFIP2], in that order: 5.03 ± 0.26 and 4.99 ± 0.12.
As for PGDFDRNVPRICGVCGDRATGFHF [VDR], the protein stability index was found to be 2.19 ± 0.13 (treatment: DMSO) and 2.64 ± 0.27 (treatment: MLN4924 1 uM, 8 h).
For GHGYDSKKQQELTAAVLGLICEGL [ZBED1] the same measures were 2.34 ± 0.31 and 2.09 ± 0.29.
As to VQARMLSSTTILVQWKEPEEPNGQ [PTPRD], the protein stability index (treatment: DMSO) is 3.27 ± 0.34 and the protein stability index (treatment: MLN4924 1 uM, 8 h) turned out to be 3.19 ± 0.35.
For ENLEGVPSVCSENIHPQVLLPDQA [ZNF263] the same measures were 5 ± 0.39 and 4.96 ± 0.11.
For TSPSSNNSSEELSSALHLSKGMSI [NECAB1] the same measures were 4.26 ± 0.19 and 4.24 ± 0.16.
Turning to QNEEYLLTYINEDRISTTFRLTTL [PLK2], the protein stability index turned out to be 2.6 ± 0.37 (treatment: DMSO) and 2.29 ± 0.58 (treatment: MLN4924 1 uM, 8 h).
For LVSDDPRCRLSLDDRVLSSLVRDT [POP5] the same measures were 3.44 ± 0.24 and 3.68 ± 0.12.
For HFSFNVKFYPPDPAQLSEDITRYY [EPB41L3] the same measures were 2.21 ± 0.24 and 2.12 ± 0.12.
Regarding PEEELDFFEILRLFFPVIYDVKYL [CNOT7], the protein stability index is 2.35 ± 0.51 (treatment: DMSO) and 2.47 ± 0.61 (treatment: MLN4924 1 uM, 8 h).
For PDECGKTEFTRFLCSSPLEAETPP [ATE1], in that order: 4.8 ± 0.071 and 4.88 ± 0.13.
For DERAMELLIDFAYTSQITVEEGNV [KLHL20] the same measures were 2.54 ± 0.21 and 3.04 ± 0.2.
For ELVHFLLLKYRAREPVTKAEMLGS [MAGEA3] the same measures were 2.54 ± 0.63 and 2.73 ± 0.92.
LAQEAEAWLNYPCFKNWDGSPVSS [OAS1]: the protein stability index runs as follows: (treatment: DMSO) 3.04 ± 0.28; (treatment: MLN4924 1 uM, 8 h) 3.11 ± 0.35.
Take KWTRVASMSTRRLGVAVAVLGGFL [KLHL20]: the protein stability index is, setting by setting: (treatment: DMSO) 2.18 ± 0.11; (treatment: MLN4924 1 uM, 8 h) 2.08 ± 0.13.
For SPEALSLGEVAYHDYHGILVDEEE [ADD1], in that order: 5.58 ± 0.27 and 5.54 ± 0.13.
For LSRKVAKLVHFLLLKYRAREPVTK [MAGEA6] the same measures were 2.7 ± 0.37 and 2.43 ± 0.67.
For RAFLQTYSHEVSLTADSRKSHLIF [PCDHGA10], in that order: 2.2 ± 0.34 and 2.08 ± 0.24.
For PSIYHTMASPCSAMAYHHDSRRIF [WDFY1], the protein stability index came to 2.14 ± 0.72 (treatment: DMSO) and 2.18 ± 0.4 (treatment: MLN4924 1 uM, 8 h).
For DYNQAEMKQRDNCKIRIQRQLEIM [STX11], in that order: 2.9 ± 0.19 and 3.15 ± 0.31.
For LGRSLTAVFMWPGKDSRWLPSLVL [SLC29A1] the same measures were 2.98 ± 0.22 and 2.83 ± 0.47.
For REQSRLTSCLKKREEMKLKECVSI [TNFSF13B] the same measures were 3.62 ± 0.11 and 3.81 ± 0.24.
Turning to YAPVGFCLLVLRLFLGIHVFLVSC [AUP1], the protein stability index by setting is: (treatment: DMSO) 3.14 ± 1; (treatment: MLN4924 1 uM, 8 h) 2.88 ± 0.35.
For LPFRDASFGNCTYNLTILDCLQGI [CDC14A] the same measures were 2.44 ± 0.59 and 2.71 ± 0.49.
For EAIQPYRDRLRSRLEALSTERDEI [TRIM15], in that order: 4.61 ± 0.12 and 4.52 ± 0.14.
For EQLQQILKRKNKQAFLDELESSDL [MNAT1] the same measures were 3.48 ± 0.46 and 3.73 ± 0.39.
For the sequence GSRLCLYEDGTELTEDYFPSVPDN [DFFB], the protein stability index is, setting by setting: (treatment: DMSO) 4.44 ± 0.44; (treatment: MLN4924 1 uM, 8 h) 4.66 ± 0.45.
For STASTTSTTNSTAAKPAASITSKP [ZNF207] the same measures were 5.15 ± 0.11 and 5.01 ± 0.19.
As for LRSPNNFLSYYRLTRFLSRVIKCD [CCND1], the protein stability index runs as follows: (treatment: DMSO) 2.24 ± 0.42; (treatment: MLN4924 1 uM, 8 h) 2.44 ± 0.2.
For EDIDTSMYDNELWAPASEGLKPGP [SERTAD1] the same measures were 4.84 ± 0.19 and 4.76 ± 0.17.
For LGLLFERHWHRPVLMAVSVHSERK [SCNN1D] the same measures were 2.21 ± 0.23 and 2.33 ± 0.24.
VLRAEHRGFQEENKALWENNKLKL [CBY2]: the protein stability index reads like this: (treatment: DMSO) 3.83 ± 0.45; (treatment: MLN4924 1 uM, 8 h) 3.89 ± 0.28.
